Data taken from patent publication US8741844B2, “Use of mutated antithrombins for treating or preventing coagulation disorders” (Universite Paris-Sud XI, priority 2007, dated 2014).

How the values were obtained:
[1] = test system: pentasaccharide bound murine antithrombin (plasma anti-Xa activity); assay: Anti factor Xa assay in mouse plasma supplemented with Fondaparinux; assay type: biochemical
Description: During the animal experimentation (see detailed protocol below), human mutated antithrombins compete with murine antithrombin for their binding to the pentasaccharide. Thus, preliminary in vitro assays are performed to determine the human mutated antithrombin concentration necessary to compete with the murine antithrombin present in mouse plasma supplemented with Fondaparinux.
These experiments are performed as described in section II-b, using mouse plasma instead of human plasma.

[2] = test system: plasma anti FXa activity in mice treated with pentasaccharide; assay: Murine model: mutated antithrombins as antidotes of fondaparinux, plasma anti FXa activity; assay type: in vivo, mouse; settings: injection of mutated antithrombin after fondaparinux
Description: The efficiency of the mutated antithrombins AT-R393H(SEQ ID NO: 4), AT-Pro394 (SEQ ID NO: 6), AT-ΔR393-S394 (SEQ ID NO: 18), AT-ΔR393 (SEQ ID NO: 8), AT-ΔS394 (SEQ ID NO: 10), AT-N135Q-R393H(SEQ ID NO: 14), AT-N135Q-Pro394 (SEQ ID NO: 16), AT-N135Q-ΔR393-S394 (SEQ ID NO: 24), AT-N135Q-ΔR393 (SEQ ID NO: 20), AT-N135Q-A5394 (SEQ ID NO: 22) as antidotes is evaluated in a murine model.
The different drugs to be tested (fondaparinux, low molecular weight heparin, full length heparin and the mutated antithrombins) are administrated by intra-venous injection in the caudal vein to avoid the variability encountered when administration is performed subcutaneously. However, Heparin derivatives (fondaparinux, low molecular weight heparin and full length heparin) could also be administrated subcutaneously.
The blood is collected by punction in cave vein into tubes containing 0.105 mol/L trisodium citrate (1:10). Platelet-poor plasma is obtained by centrifugation at 2300 g for 10 minutes at 12° C. and stored at −80° C. until use.
The following elements are determined: • the doses of fondaparinux inducing an overdose in mice, • the mutated antithrombins time course, and in particular the time required to observe a maximal biological effect, • the minimal doses of mutated antithrombins necessary to neutralize fondaparinux.
For each of these experiments, 4 groups of 5 mice each are used: • In the first group mice receive fondaparinux vehicle and then antidote (mutated antithrombin) vehicle. • In the second group, mice receive fondaparinux and then antidote vehicle • In the third group, mice receive fondaparinux vehicle and then antidote • In the last group, mice receive fondaparinux and then antidote
Anti FXa activity measurements is performed as previously described using a Stachrom Heparin® kit on a STA (Stago, France) or a Rotachrom Heparin® kit with procedure adapted for measurement in microplate reader (Dynatech MR 5000). A calibration curve with pentasaccharide is performed, allowing the expression of the results in nmol/ml (or in mg/L) of plasma.
Thus, the antidote (mutated antithrombins) is administered intravenously, 5 min after the intra-venous injection of the fondaparinux, and 5, 15 or 30 min after the subcutaneous injection of the fondaparinux.
The mutated antithrombin time course is studied by measuring the plasma anti-Xa activity 5 min, 10 min, 20 min and 40 min after the antidote administration.
Once the time of action determined, a dose response curve is performed in vivo to determine the dose of antidote necessary to obtain a decrease in Fondaparinux plasma concentration within the therapeutic range around 1.2 nmol/ml (or 2 mg/L), or around 0.7 nmol/ml (or 1.2 mg/L).

B1: AT-ΔS394: human antithrombin with deletion of the amino acid at position 394 (protein, listed as Homo sapiens)
chain: HGSPVDICTAKPRDIPMNPMCIYRSPEKKATEDEGSEQKIPEATNRRVWELSKANSRFATTFYQHLADSKNDNDNIFLSPLSISTAFAMTKLGACNDTLQQLMEVFKFDTISEKTSDQIHFFFAKLNCRLYRKANKSSKLVSANRLFGDKSLTFNETYQDISELVYGAKLQPLDFKENAEQSRAAINKWVSNKTEGRITDVIPSEAINELTVLVLVNTIYFKGLWKSKFSPENTRKELFYKADGESCSASMMYQEGKFRYRRVAEGTQVLELPFKGDDITMVLILPKPEKSLAKVEKELTPEVLQEWLDELEEMMLVVHMPRFRIEDGFSLKEQLQDMGLVDLFSPEKSKLPGIVAEGRDDLYVSDAFHKAFLEVNEEGSEAAASTAVVIAGRLNPNRVTFKANRPFLVFIREVPLNTIIFMGRVANPCVK
B1 was tested, and the “effect on anti-Xa activity of pentasaccharide contained in mouse plasma” value [1] was “significant decrease” and the “plasma anti FXa activity in mice treated with pentasaccharide” value [2] was “significant decrease”.
